Several values for one entry are separate records, joined by “and”; a condition that tells them apart may be missing. Equal entries are not always repeated.
Tests used:
[1] = biological target: CaMKIIα/Ca^2+/CaM complex (human) (UniProt Q9UQM7); assay: AUC; sedimentation velocity of the CaMKII/Ca2+/CaM complexes, 4°C, 10 mM HEPES pH 7.5, 300 mM NaCl, 1 mM CaCl2, 5 mM DTT; heterodimer to heterotetramer, KD estimated from the proportions of the peaks
[2] = biological target: CaMKIIγ oligomerization domain (human); assay: crystal structure; isolated oligomerization domains of human CaMKIIγ (2.7 Å) and CaMKIIδ (2.8 Å)
[3] = biological target: CaMKIIδ/Ca^2+/CaM complex (human) (UniProt Q13557); assay: AUC; sedimentation velocity of the CaMKII/Ca2+/CaM complexes, 4°C, 10 mM HEPES pH 7.5, 300 mM NaCl, 1 mM CaCl2, 5 mM DTT; heterodimer to heterotetramer, KD estimated from the proportions of the peaks
[4] = biological target: CaMKIIγ catalytic and regulatory domain (human) (UniProt Q13555); assay: ITC; VP-ITC, 10°C, 20 mM HEPES pH 7.5, 150 mM NaCl, 5 mM DTT, 1 mM CaCl2; Ca2+/CaM titrated into the kinase domains, or the peptide titrated into Ca2+/CaM; single binding site model
Sequence of CaMKIIγ catalytic and regulatory domain (human) (Q13555 5-317): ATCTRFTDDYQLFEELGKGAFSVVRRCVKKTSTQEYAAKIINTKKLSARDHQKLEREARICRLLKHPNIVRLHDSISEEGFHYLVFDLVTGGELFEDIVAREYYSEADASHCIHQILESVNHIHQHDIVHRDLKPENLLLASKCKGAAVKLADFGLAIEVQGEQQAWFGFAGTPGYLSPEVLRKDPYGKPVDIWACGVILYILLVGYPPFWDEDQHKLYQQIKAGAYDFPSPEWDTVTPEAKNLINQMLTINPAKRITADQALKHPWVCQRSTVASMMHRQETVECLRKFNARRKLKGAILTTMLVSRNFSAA

[5] = biological target: CaMKI catalytic domain (human) (UniProt Q8IU85); assay: as above
Sequence of CaMKI catalytic domain (human) (Q8IU85 1-333): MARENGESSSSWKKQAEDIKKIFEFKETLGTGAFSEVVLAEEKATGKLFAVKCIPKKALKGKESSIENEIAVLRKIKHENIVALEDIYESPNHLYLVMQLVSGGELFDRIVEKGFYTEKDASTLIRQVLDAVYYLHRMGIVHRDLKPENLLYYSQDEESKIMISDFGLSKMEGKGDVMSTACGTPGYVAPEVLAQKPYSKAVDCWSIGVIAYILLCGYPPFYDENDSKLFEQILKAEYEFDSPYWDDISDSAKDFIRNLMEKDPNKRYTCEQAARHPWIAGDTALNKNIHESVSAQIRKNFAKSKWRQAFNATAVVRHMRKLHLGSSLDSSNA

[6] = biological target: CaMKIIα catalytic domain (human) (UniProt Q9UQM7); assay: as above
[7] = biological target: CaMKIV catalytic domain (human) (UniProt Q16566); assay: as above
Sequence of CaMKIV catalytic domain (human) (Q16566 15-340): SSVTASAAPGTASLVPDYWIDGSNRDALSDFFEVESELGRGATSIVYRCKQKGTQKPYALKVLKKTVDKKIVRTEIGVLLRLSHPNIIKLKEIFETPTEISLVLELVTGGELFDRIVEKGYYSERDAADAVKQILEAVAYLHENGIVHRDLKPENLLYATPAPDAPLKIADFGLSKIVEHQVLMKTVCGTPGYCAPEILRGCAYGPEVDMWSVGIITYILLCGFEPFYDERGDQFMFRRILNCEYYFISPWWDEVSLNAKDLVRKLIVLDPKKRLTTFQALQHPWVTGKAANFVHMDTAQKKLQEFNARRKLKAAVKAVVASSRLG

[8] = biological target: CaMKIIβ catalytic domain (human) (UniProt Q13554); assay: as above
Sequence of CaMKIIβ catalytic domain (human) (Q13554 11-302): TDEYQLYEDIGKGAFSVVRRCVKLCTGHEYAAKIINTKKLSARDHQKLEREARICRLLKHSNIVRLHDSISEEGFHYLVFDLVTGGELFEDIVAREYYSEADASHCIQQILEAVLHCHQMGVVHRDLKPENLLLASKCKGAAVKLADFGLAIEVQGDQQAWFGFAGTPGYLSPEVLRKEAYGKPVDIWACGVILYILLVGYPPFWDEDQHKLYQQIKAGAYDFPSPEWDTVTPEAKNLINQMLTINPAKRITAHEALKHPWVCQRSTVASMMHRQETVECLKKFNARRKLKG

[9] = biological target: the molecule itself; assay: crystal structure; isolated oligomerization domains of human CaMKIIγ (2.7 Å) and CaMKIIδ (2.8 Å)

In the case of “CaMKIIα/Ca^2+/CaM complex (from UniProt Q9UQM7 13-301; P0DP23 1-149)”, the Kd [1] is reported as 120 µM.

“CaMKIIγ oligomerization domain (domain or fragment)” gave a stoichiometry N [2] of 12.

In the case of “CaMKIIδ/Ca^2+/CaM complex (from UniProt Q13557 11-335; P0DP23 1-149)”, the Kd [3] is reported as 50 µM.

For “calmodulin (Ca^2+/CaM) (from UniProt P0DP23 1-149) (natural protein)”, the dH [4] was 8.6 kcal/mol, the stoichiometry N [4] was 0.981 and the dH [5] was -5.8 kcal/mol and -5.1 kcal/mol. It also gave a stoichiometry N [5] of 0.93, a dH [6] of 12.1 kcal/mol and a stoichiometry N [6] of 0.863. It also gave a dH [7] of -10.2 kcal/mol, a stoichiometry N [7] of 0.83 and a dH [8] of 8.9 kcal/mol. For the same molecule, the stoichiometry N [8] was 0.922.

B1: CaMKIIδ oligomerization domain (domain or fragment, human, UniProt Q13557 334-475, looked up)
chain: SNTTIEDEDVKARKQEIIKVTEQLIEAINNGDFEAYTKICDPGLTAFEPEALGNLVEGMDFHRFYFENALSKSNKPIHTIILNPHVHLVGDDAACIAYIRLTQYMDGSGMPKTMQSEETRVWHRRDGKWQNVHFHRSGSPTV
With B1 the “stoichiometry N” value [9] was 14.
